Read-outs that look alike come from different tables or passages of the source.
What was measured:
[1] = target: peripheral node addressin; assay: parallel plate laminar flow chamber, duration of transient cell tethers
[2] = target: peripheral node addressin; assay: as above; remark: listed apart in the source

transient tether lifetime [1]: 0.087 s
transient tether lifetime [2]: 0.057 s
B1: L-selectin (receptor)
chain: WTYHYSEKPMNWQRARRFCRDNYTDLVAIQNKAEIEYLEKTLPFSRSYYWIGIRKIGGIWTWVGTNKSLTEEAENWGDGEPNNKKNKEDCVEIYIKRNKDAGKWNDDACHKLKAALCYTASCQPWSCSGHGECVEIINNYTCNCDVGYYGPQCQFVIQCEPLEAPELGTMDCTHPLGNFSFSSQCAFSCSEGTNLTGIEETTCGPFGNWSSPEPTCQVIQCEPLSAPDLGIMNCSHPLASFSFTSACTFICSEGTELIGKKKTICESSGIWSNPSPICQKLDKSFSMIKEGDYNPLFIPVAVMVTAFSGLAFIIWLARRLKKGKKSKRSMNDPY

From paper PMC2148129
